Source: the nanobody polyreactivity screen of Harvey et al. (2022)

Experiment: yeast display, Sf9 membrane polyspecificity reagent, FACS + sequencing; frameworks hold sequencing errors
In short: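 Galactose induction of a Saccharomyces cerevisiae BJ5465 synthetic nanobody display library ran 36–48 hours. The cells were then stained for 1 hour at 4 °C with 10% biotinylated, detergent-solubilized Sf9 membrane reagent, pulled down on streptavidin microbeads and FACS-sorted into low and high (top ~1%) gates on expression and reagent-binding fluorescence. Labels for polyreactivity follow the gate of origin.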

Row | Sequence | polyreactivity (PSR sort gate)
1 | QVQLVESGGGLVQAGGSLRLSCAASGLIFSYNAMGWYRQAHGKETELVATIRRVGSTNYADSVKGRFTISRDNAKNTVYLQMNSLQPDDTAVYYCAAVYVRIGTRYGYWGQGTQVTVSS | high polyreactivity
2 | QVQLVESGGGLVQAGGSLRLSCAASGRIFYIYAMGWYRQAPGKERELVAAISTGGGGTYYADSVKGRFTISRDNAKNTVYLQMNSLKPEDTAVYYCAVDSKPRYREFDYWGQGTQVTVSS | high polyreactivity
3 | QVQLVESGGGLVQAGASLRLSCAASGRTFAYYAMGWYRQAPGKERELVATITSSVGRTYYADSVKGRFTISRDNAKNTVYLQINSLKPEDTAVYYCNASDWGRTRGGGYPWLYRYDYWGQGTQVTVSS | low polyreactivity
4 | QVHLVESGGGLVQAGGSLRLSCAASGSTLVTNAIGWYRQAPGKERELVAAITFSGGTTYYADSVKGRFTISRDNAKNTVYLQLNSLKPEDTAVYYCAAENWLEYVGYDFWGQGTHVTVSS | high polyreactivity
5 | QVQLVESGGGLVQAGGSLRLSCAASGRIFYGYAMGWYRQAPGKERELVAASRYSGGSTYADSVKGRFTISRDNAKNTVFLQMNSLKPEVTAVYYCAAGDAPYVAWDQYQDNVFRYDYWGQGTQVTVSS | low polyreactivity
6 | QVQLVESGGGLVQAGGSLRLSCAASGRIFGENALGWYRQAPGKEREFVAVISISDASTYYADSVKGRFTISRDNAKNTVYLQMISLKPEDTAVYYCAAELTDFLYVASDYWGQGTQVTVSS | low polyreactivity
7 | QVQLVESGGGLVQAGGSLRLRCASSGGIFVPYAMGWYRQAPGKERELVAGITSGGSTNYADSVKGRFSISRDNAKNTVYLQMNRLKPEDTAVYYCAARRRPGGRYKSRVWYDYWGLGTQVTVSS | high polyreactivity
8 | QVQLVESGGGLVQAGGSLRVSCAASGYTFKHYTMGWYREAPGKERELVATISIRGGNTSYADSVKGRFTISRDTAKNTVYLQMNSLKPEDTAVYYCAARSVNAPPRYRQKAGYDYWGQGTQETVSS | high polyreactivity
9 | QVQLVESGAGLVQAGGSLRFSCAASGSIFDHYVMGWYRQAPGKEREFVAAIPSGDRTNYADSVKGRFTISRDNANNTVYLQMNSLKPEDTAVYYCNADYQYYFYYTTCYYDYDYWGQGTPVTVSS | low polyreactivity
10 | QVQLVESGGGLVQAGGSLRLICAASGFTFCLYAMGWYRQAPGKERELVADIDWDGGTYYADSVKGRFTISRDNAKNTVYLQMNSLKPEDTAVYYCAAELTEWTNGFDYWGQGTQETVSS | high polyreactivity
11 | QVQLVESGGGLVQAGGSLRLSCAASGSTFSYYTMGWYRQAPGKERELVAAISRTGGSTYYADSVKGRFTISRDNAKNTVYLQMNSLKPEDTAVYYCAAKGYVGRYDYWGQGTQVTVSS | high polyreactivity
12 | QVQHVESGGGLVQAGGTLRLSCASSGRTLYYYTMGWYRQAPGKESELVAAISKSGGSTYYADSVKGRFTISRDNAKNTVYLQMNSLKPEDTAVFYCAADRSAYSRGYVRYIYWGQGTKVTVSS | high polyreactivity
13 | QVQLVESGGGLVQAGGSLRLSCAASGRIFGHYAMGWYRQAPGKETELVASISWRGGRTYYADSVKGRFTISRDNAKNTVYLQMNSLKPEDTAVYYCAARVNYKPYADYYYWGQGTQVTVSS | high polyreactivity
14 | QVQLVESGGGLVQAGRSLRLSCAASGNIFIRYAMGWYRQAPGKEREVVAAISQSGGGTSYADSVKGRFTISRDNAKNTVYLQMNSLKPEDTAVYYCNARYWRYPWRFGAWVGHDYWGQGTQVTVSS | low polyreactivity
15 | QVQLVESGGGLVQAGGSLRLSCAASGSIFPYNVMGWYRQAPGKERELVAAISTRGGRTYYADSVKGRFTISRDNAKNTVYLQMNSLNPEDTAVYYCATAGGPYSASGYYWGQGTKVTVSS | high polyreactivity
16 | QVQLVESCGGLDQAGGSLRLSCAASGSMFGYAMGWYRQAPGKERELVASTTYADSVKGRFTISRDNAKNTVYLQMNSLKPEDTAVYDCAADDWYTVEMEYWGQGTLVTVSS | low polyreactivity
17 | QVQLGESGGGLVQAGGSLRLSCAASGRIFSKNAMGWYRQAPGKERELVASIRQSGSNTYADSVKGRFTISRVNAKNTVYVQMNSLKPEDTAVYNCAASYFPLNSGRKVGYWGQGTQVTVSS | low polyreactivity
18 | QVQLVESGGGLVQAGGSLRLSCAASGFIFYYNAMGRYRQAPGKERELVATIRGSGGSTYYADSVKGRFTISRDNAKNTVYLQMNSLKPEDTAVYYCATTIYGLTSRLYYWGQGTQVTVSS | high polyreactivity
19 | QLQLVESGGGLVQAGGSLRLSCAASGFTSDVYAKVSYRQAPGKERELVAEISARGGSTYYADSVKGRFTISRDNAKNTVYLQMNSLKPEDTAVYYCAAEVYVGTIGFYADFFYYPVYYWGQGTQVTVSS | low polyreactivity
20 | QVQLVESGGGLVQAGGSLRLSCAASGRNFSLYAMGWYRQAPGKERELVAAISWSGGNTYYADSVKGRFTISRDNAKNTVYLQMNSLKPEDTAVYYCNTVSYRGDWNPSKYYYWGQGTQVTLSS | high polyreactivity
21 | QVQLVESGGGLVQAGGSLRLSCAASGRTFGRYAMGWYRKAPGKERELVAAISCSGGSTYYADSVKGRFTISRDNAKNTVYLQMNSLKPEDTAVYYCAADWRQGLWYGYYYWGQGTQVTVSS | low polyreactivity
22 | QVQLVESGGGLVQAGGSLRLSCAASGGIFGSYTMGWYRQAPGKERELVAGISDSGGSTYYADSVKGRFTISRDNAKNIVYLQMNSLKPEDTAVYYCAAVEAYGQEYDYWGQGTQVTVSS | low polyreactivity

Row | Sequence | polyreactivity (PSR sort gate)
23 | QVQLVESGGGLVQAGGSLRLSCAASGSIFKYYAMGWYRQAPGKERELVAAISTGGTTNYADSVKGRFTISRDNAKKTVYLQMNSLKPDDTAVYYCNRDFLVRSRYKYYYWGQGTQVTVSS | low polyreactivity
24 | QVQLVESGGGLVQAGGSLRLSCAASGSPFNYYAMGSYRQAPGKERELVAGINRGGSTNYADSVKGRFTISRDNAKNTVYLQMNSLKPEDTAVYYCAVRAYRWRSTLGLYYWGQGTQVTVSS | high polyreactivity
25 | QVQLVESGGGLVQAGGSLRLSCAASGRTFDYYAMGWYRQAPGKERELVAAISSSGGSTYYADSVKARFTISRDNAKNTVYLQMNSLKPEDTEVYYCNAYAYRFNHIHHIYTTVGEYWGQGTQVTVSS | high polyreactivity
26 | QVQLVESGGGLVQAGGSLRLSCAASGLTFFGYTMGWYRQAPGKEREFVADITWSGGSTYYADSVKGRFTISRDNAKNTVYLQMNSLKPEVTAVYYCAVAPPNWDPFVDDTYLMDYWGQGTQVTLSS | low polyreactivity
27 | QVQLVESGGGLVQAGGSLRLSCAASGSTFTTNAMGWYSQAPGKERELVATISGGGSTYYADSVKGRFTISRDNAKNTVYLQMNSLKPEDTAVYYCATDVQVPGIGRSVYAYEYWGQGTQVTVSS | low polyreactivity
28 | QVQLVESGGGLVQAGGSLRLSCAASGRTLYWYAMGWYRQAPGKERELVAAISSGGGSTYYADSVKGRFTISRDNAKNTVYLQMNSLKPEDTAVYYCATDEPWVYGYDYWGQGTQVTVSS | low polyreactivity
29 | QVQLVESGGGLVQAGGSLRLSCAASGRIFNVNALGWYRQAPGKERELVAAINWSGGRTYYADSVKGRFTISRDNAKNTVYLQLNSLKPEDTAVYYCAADTRYPYRAYDYWGQGTQVTVAS | high polyreactivity
30 | QVQLVESGGGLVQAGGSLRLSCDDSGSIFWWYTMGWYRQAPGKERELVAAITWNADGTYYADSVKGRFTISRDNAKNTVYLPINSLKPEDTAVYYCAADQYYLDWGGGYDYWGQGTQLTVSS | low polyreactivity
31 | QVQLVESGGGLVQAGGSLRLSCAASVLTFETYAMGWYRQAPGKERELVAAISFSGDSTYYADSVKGRFTISRDNAKNTVYLQMNSLKPEDTAVYYCAAEQYYAWYIVGPDYYYWGQGTQVTVSS | high polyreactivity
32 | QVQLVDSGGGLVQAGGSLRLSCAASGRIFPWYAMGWYRQAPGKEMELVAAINWRAGLTYYADSVKGRFTISRDYAKNTVYLQMNSLKPEDTAVYYCNARSGRGQAYGYWGQGTQVSVSS | high polyreactivity
33 | QVQLVESGGGLVKAGGSLRLSCAASGFTFTIYAMGWYRQAPGKERELVAAITNSGDTNYADSVKGRFTISRDNAKNTVYLQMNSLKPEDTAVYYCAKAYYIGYFFNFGSWGQGTQVTVSS | low polyreactivity
34 | QVQLVESGGGLVQAGGSLRLSCAASGRIFGLYAMGWYRQATGKERELVAAISSSGGRTYYADSVKGRFTISRDNAKNTVYLQMNSLKPEDTAVYYCAAVYYYRRDGNGYWGQGTQVTVSS | high polyreactivity
35 | QVQLVESGGGLVQAGGSLRLSCAASGSIFSDYVMGWSRQAPGKERELVATISRGGGSTFYADSVKGRFTISRDTAKNTVYLQMNSLKPEDTAVYYCAAPPGPSGAKYDYWGQGTQVTVSS | low polyreactivity
36 | QVQLVESGGGLVQAGGSLRLSCAASGRIFSRYAMGWYRQAPGKERELVASIRITGSTYYADSVKGRFTISRDNAKTTVYLQMNSLKPEDTAVYYCAAYQYRLGNIRLNYWGQGTQVTVSS | high polyreactivity
37 | QVQRVESGGGLVQAVGSLRLSCPASGIISVCNARGWYRQAPGKERELVASINSGGSTNYADSVKGRFTISRDNAKNTVYLQMNSLKPEDTAVYYCARLHDIRSPYSGTPVRDLPDEDDYWGQGTQVTVSS | low polyreactivity
38 | QVQLVESGGGLVQAGGSLRLSCAASGITFTQYAMGWYRQAPGKERELVAAISKRGGRTYYADSVKGRFTISRDNAKNTVYLQMNSLKPEDTAVYYCATVPYGEVDYWGQGTQVTVSS | high polyreactivity
39 | QVQLVESGGGLVQEGGSLRLSCAASGSTFTYYAMGWYRQAPGKERELVAAISRSGGNTYYADSVKGRFTISRDNAKNTVYLQMNSLKPEDTAVYYCAAYRQVYGFDYWGQGTQVTVSS | high polyreactivity
40 | QVQLVESGGGLVQAGGSLRLSCAASGIIFANYTMGWYRKAPGKERELVAAISWSGDSTYYADSVKGRFTISRDNAKNTVYLQMNSLKPEDTAVYYCATVNIGYRVWMNYWGQGTQVTVSS | low polyreactivity
41 | QVQLVESGGGLVQAGGSLRLSCSATGRIFVLYDMGWYRQAPGKERELVAGISGSGGRTYYADSVKGRFTISRDNAKNTVYLQMNSLKAEDTAVYYFNALGYYWYRPYVNSNGGYWGQGTLVTVSS | high polyreactivity
42 | QVQLVESGGGLDQAGGSLRLSCAASGRIFGRYAMGWYRQAPGKERELVASISRGGSTNYADSVKGRFTISRDNAKNTVYLQMNSLKPEDTAVYYCAKSGGVGGEDRVGSWGQGTQVTVSS | low polyreactivity
43 | QVQLVESGGGLVQAGGSLRFSCAASGGIFWYNAMGWYRQAPGKERELVAAISASTGSTYYADSVKGRFTISRDNAKNTVYLQMNSLKPEDTAVYYCAATRYRSARYAYGHWGQGTQVTVSS | high polyreactivity
